The text below walks through data of PMC10516966.

The target of the test is T1, Rat TRPV2 (transient receptor potential vanilloid 2 channel), full length, C-terminal 1D4 tag (rat), Q9WUD2.
T1 chain: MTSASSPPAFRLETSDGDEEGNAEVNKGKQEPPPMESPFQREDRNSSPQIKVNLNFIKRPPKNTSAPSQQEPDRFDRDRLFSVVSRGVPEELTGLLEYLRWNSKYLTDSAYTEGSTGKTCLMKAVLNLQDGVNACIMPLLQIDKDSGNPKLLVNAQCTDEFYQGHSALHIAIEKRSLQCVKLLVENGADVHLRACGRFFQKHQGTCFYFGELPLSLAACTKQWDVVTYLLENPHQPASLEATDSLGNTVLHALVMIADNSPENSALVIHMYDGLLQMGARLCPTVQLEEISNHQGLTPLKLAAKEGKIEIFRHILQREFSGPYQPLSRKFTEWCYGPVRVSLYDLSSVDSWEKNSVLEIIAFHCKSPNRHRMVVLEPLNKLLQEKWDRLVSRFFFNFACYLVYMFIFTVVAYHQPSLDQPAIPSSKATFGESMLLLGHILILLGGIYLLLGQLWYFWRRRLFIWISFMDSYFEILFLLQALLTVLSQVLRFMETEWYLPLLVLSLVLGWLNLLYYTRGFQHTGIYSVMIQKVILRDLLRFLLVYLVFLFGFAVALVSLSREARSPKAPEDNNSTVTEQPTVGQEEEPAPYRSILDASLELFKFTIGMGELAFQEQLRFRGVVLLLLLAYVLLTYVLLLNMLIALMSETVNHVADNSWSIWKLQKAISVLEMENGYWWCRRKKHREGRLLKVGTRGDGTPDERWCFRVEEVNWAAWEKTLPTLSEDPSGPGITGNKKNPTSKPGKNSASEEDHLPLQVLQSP
Put plainly: high-speed atomic force microscopy (HS-AFM); TRPV2 reconstituted into soy polar lipid membranes (LPR 0.5-0.7) on mica; imaging buffer 20 mM Hepes pH 8.0, 150 mM NaCl; contacts between neighbouring tetramers scored as connected or not in binarised frames; dwell times fitted with a single exponential; thick continuous connections excluded. The conditions noted are these: remark: other sources report otherwise.

B1: Rat TRPV2 (transient receptor potential vanilloid 2 channel), full length, C-terminal 1D4 tag, Q9WUD2 1-761 (natural protein)
chain: MTSASSPPAFRLETSDGDEEGNAEVNKGKQEPPPMESPFQREDRNSSPQIKVNLNFIKRPPKNTSAPSQQEPDRFDRDRLFSVVSRGVPEELTGLLEYLRWNSKYLTDSAYTEGSTGKTCLMKAVLNLQDGVNACIMPLLQIDKDSGNPKLLVNAQCTDEFYQGHSALHIAIEKRSLQCVKLLVENGADVHLRACGRFFQKHQGTCFYFGELPLSLAACTKQWDVVTYLLENPHQPASLEATDSLGNTVLHALVMIADNSPENSALVIHMYDGLLQMGARLCPTVQLEEISNHQGLTPLKLAAKEGKIEIFRHILQREFSGPYQPLSRKFTEWCYGPVRVSLYDLSSVDSWEKNSVLEIIAFHCKSPNRHRMVVLEPLNKLLQEKWDRLVSRFFFNFACYLVYMFIFTVVAYHQPSLDQPAIPSSKATFGESMLLLGHILILLGGIYLLLGQLWYFWRRRLFIWISFMDSYFEILFLLQALLTVLSQVLRFMETEWYLPLLVLSLVLGWLNLLYYTRGFQHTGIYSVMIQKVILRDLLRFLLVYLVFLFGFAVALVSLSREARSPKAPEDNNSTVTEQPTVGQEEEPAPYRSILDASLELFKFTIGMGELAFQEQLRFRGVVLLLLLAYVLLTYVLLLNMLIALMSETVNHVADNSWSIWKLQKAISVLEMENGYWWCRRKKHREGRLLKVGTRGDGTPDERWCFRVEEVNWAAWEKTLPTLSEDPSGPGITGNKKNPTSKPGKNSASEEDHLPLQVLQSP
On to B1, for which the connection lifetime time constant was found to be 2.2 s.
